Assay results as given in US20210269542A1 (POTENZA THERAPEUTICS, published 2021).
Changes are numbered by the printed parent chain. Where two headings read alike, the source gives them in different places. Values belong to the binder of their own block, whether it stands above or below them.

Legend:
[1] = molecular target: T1, human GITR-Fc mutant C66D (human, UniProt Q9Y5U5 26-162); assay: BLI (Octet): GITR-Fc mutant on anti-human Fc sensor, ABP1 Fab in solution
T1 chain: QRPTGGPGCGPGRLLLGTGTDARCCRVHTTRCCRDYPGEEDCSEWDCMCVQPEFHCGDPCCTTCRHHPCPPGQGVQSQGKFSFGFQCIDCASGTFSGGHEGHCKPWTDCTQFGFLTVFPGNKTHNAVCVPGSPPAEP
Description: (§1) Binding was assessed by Bio-Layer Interferometry (BLI) using the Octet platform.

[2] = molecular target: T2, human GITR-Fc mutant C58A (human, UniProt Q9Y5U5 26-162); assay: as above
T2 construct: Point mutation in the human GITR extracellular domain with an Fc tag
T2 chain: T1 chain with C33A, D41C
Description: as §1

[3] = molecular target: T3, human GITR-Fc mutant C67A (human, UniProt Q9Y5U5 26-162); assay: as above
T3 chain: T1 chain with D41C, C42A
Description: as §1

[4] = molecular target: T4, human GITR-Fc mutant R56A (human, UniProt Q9Y5U5 26-162); assay: as above
T4 chain: T1 chain with R31A, D41C
Description: as §1

[5] = molecular target: T5, human GITR-Fc mutant Y61A (human, UniProt Q9Y5U5 26-162); assay: as above
T5 chain: T1 chain with Y36A, D41C
Description: as §1

[6] = molecular target: T6, human GITR-Fc mutant R59A (human, UniProt Q9Y5U5 26-162); assay: as above
T6 chain: T1 chain with R34A, D41C
Description: as §1

[7] = molecular target: T7, human GITR-Fc mutant D60A (human, UniProt Q9Y5U5 26-162); assay: as above
T7 chain: T1 chain with D35A, D41C
Description: as §1

[8] = molecular target: T8, human GITR-Fc mutant E65A (human, UniProt Q9Y5U5 26-162); assay: as above
T8 chain: T1 chain with E40A, D41C
Description: as §1

[9] = molecular target: T9, human GITR-Fc mutant P62A (human, UniProt Q9Y5U5 26-162); assay: as above
T9 chain: T1 chain with P37A, D41C
Description: as §1

[10] = molecular target: T10, human GITR-Fc mutant E64A (human, UniProt Q9Y5U5 26-162); assay: as above
T10 chain: T1 chain with E39A, D41C
Description: as §1

[11] = molecular target: T11, human GITR expressed on cells (human, UniProt Q9Y5U5 26-241); assay: cell-based or functional assay
T11 sequence: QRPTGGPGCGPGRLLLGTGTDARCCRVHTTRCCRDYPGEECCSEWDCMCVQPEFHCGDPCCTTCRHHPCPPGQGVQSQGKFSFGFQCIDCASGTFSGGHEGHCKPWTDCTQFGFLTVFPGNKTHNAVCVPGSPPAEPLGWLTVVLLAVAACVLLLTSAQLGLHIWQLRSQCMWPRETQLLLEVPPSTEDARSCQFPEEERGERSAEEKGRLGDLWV

[12] = molecular target: T11, human GITR expressed on cells; assay: cell-based or functional assay; remark: listed apart in the source
[13] = molecular target: T12, cynomolgus monkey GITR expressed on HT1080 cells (cynomolgus monkey); assay: cell-based or functional assay
T12 chain: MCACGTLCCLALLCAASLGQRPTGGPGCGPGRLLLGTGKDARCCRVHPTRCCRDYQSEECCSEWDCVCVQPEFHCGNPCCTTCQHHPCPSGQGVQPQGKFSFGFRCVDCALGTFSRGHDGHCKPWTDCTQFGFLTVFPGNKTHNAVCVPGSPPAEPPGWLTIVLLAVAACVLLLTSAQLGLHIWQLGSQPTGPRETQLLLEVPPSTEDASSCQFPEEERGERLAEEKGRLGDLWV

[14] = molecular target: T11, human GITR expressed on cells; assay: cell-based or functional assay; remark: listed apart in the source
[15] = molecular target: T12, cynomolgus monkey GITR expressed on …; assay: cell-based or functional assay
[16] = molecular target: T11, human GITR expressed on cells; assay: cell-based or functional assay; remark: listed apart in the source
[17] = molecular target: T12, cynomolgus monkey GITR expressed on …; assay: cell-based or functional assay
[18] = molecular target: T11, human GITR expressed on cells; assay: cell-based or functional assay; remark: listed apart in the source

binding result [1]: no binding | binding result [2]: no binding | binding result [3]: no binding | binding result [4]: binds | binding result [5]: no binding | binding result [6]: no binding | binding result [7]: binds | binding result [8]: binds | binding result [9]: binds | binding result [10]: no binding
B1: ABP1 Fab (Fab, V domains shown)
VH: QVQLQESGPGLVKPSETLSLTCAVSGYSISSGLGWGWIRQPPGKGLEWIGGIYESGSTYYNPSLKSRVTISVDTSKNQFSLKLSSVTAADTAVYYCAHERVRGYGDYGGHHAFDIWGQGTMVTVSS
VL: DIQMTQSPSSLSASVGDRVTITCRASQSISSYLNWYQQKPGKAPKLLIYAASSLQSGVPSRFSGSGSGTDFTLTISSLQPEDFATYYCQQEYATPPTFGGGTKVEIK

EC50, Jurkat cells expressing human GITR (run with ABP 1) [11]: 0.9 nM | EC50, Jurkat cells expressing human GITR (run with ABP 2) [11]: 0.91 nM | EC50, Jurkat cells expressing human GITR (run with ABP 3) [11]: 0.85 nM | EC50, Jurkat cells expressing human GITR (run with ABP 4) [11]: 1.13 nM | EC50, Jurkat cells expressing human GITR (run with ABP 5) [11]: 1.01 nM | EC50, Jurkat cells expressing human GITR (run with ABP 6) [11]: 0.9 nM | EC50, Jurkat cells expressing human GITR (run with ABP 7) [11]: 0.81 nM | EC50, Jurkat cells expressing human GITR (run with ABP 8) [11]: 0.89 nM | Average EC50 in human HT1080 (IL-8 induction) [12]: 0.37 nM | EC50 in cynomolgus HT1080 (IL-8 induction) [13]: 0.2 nM | EC50 in human HT1080 (IL-8 induction) [14]: 0.4 nM | Average EC50 in cynomolgus HT1080 (IL-8 induction) [15]: 0.17 nM | Average EC50 in human HT1080 (IL-8 induction) [16]: 0.43 nM | Average EC50 in cynomolgus HT1080 (IL-8 induction) [17]: 0.076 nM | Average EC50 in human HT1080 (IL-8 induction) [18]: 0.12 nM
B2: trimeric human GITR ligand (ligand, UniProt Q9UNG2 50-177, looked up)
chain: QLETAKEPCMAKFGPLPSKWQMASSEPPCVNKVSDWKLEILQNGLYLIYGQVAPNANYNDVAPFEVRLYKNKDMIQTLTNKSKIQNVGGTYELHVGDTIDLIFNSEHQVLKNNTYWGIILLANPQFIS
